T1: denatured bovine pancreatic Ribonuclease B (bovine, UniProt P61823 27-150)
T1 construct: mature; also called dRNase B; denatured RNase B
T1 sequence: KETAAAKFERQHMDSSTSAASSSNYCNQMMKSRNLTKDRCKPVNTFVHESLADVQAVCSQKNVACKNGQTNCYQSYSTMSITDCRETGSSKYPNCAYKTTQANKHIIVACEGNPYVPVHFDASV

T2: RNase B deglycosylated with PNGase F (bovine, UniProt P61823 27-150)
T2 construct: mature; also called deglycosylated RNase B
T2 sequence: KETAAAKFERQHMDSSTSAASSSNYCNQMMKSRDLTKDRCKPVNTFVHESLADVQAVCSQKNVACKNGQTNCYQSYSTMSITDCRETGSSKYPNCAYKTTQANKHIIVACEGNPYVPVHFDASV

B1: wild-type PNGase F from Flavobacterium meningosepticum (enzyme)
chain: GIPAPADNTVNIKTFDKVKNAFGDGLSQSAEGTFTFPADVTAVKTIKMFIKNECPNKTCDEWDRYANVYVKNKTTGEWYEIGRFITPYWVGTEKLPRGLEIDVTDFKSLLSGNTELKIYTETWLAKGREYSVDFDIVYGTPDYKYSAVVPVVQYNKSSIDGVPYGKAHTLALKKNIQLPTNTEKAYLRTTISGWGHAKPYDAGSRGCAEWCFRTHTIAINNSNTFQHQLGALGCSANPINNQSPGNWTPDRAGWCPGMAVPTRIDVLNNSLIGSTFSYEYKFQNWTNNGTNGDAFYAISSFVIAKSNTPISAPVVTNLDPHHHHHH
notes: also called wtPNGase F; 1PNF
B2: PNGase F D60A single point mutant (enzyme)
chain: GIPAPADNTVNIKTFDKVKNAFGDGLSQSAEGTFTFPADVTAVKTIKMFIKNECPNKTCDEWARYANVYVKNKTTGEWYEIGRFITPYWVGTEKLPRGLEIDVTDFKSLLSGNTELKIYTETWLAKGREYSVDFDIVYGTPDYKYSAVVPVVQYNKSSIDGVPYGKAHTLALKKNIQLPTNTEKAYLRTTISGWGHAKPYDAGSRGCAEWCFRTHTIAINNSNTFQHQLGALGCSANPINNQSPGNWTPDRAGWCPGMAVPTRIDVLNNSLIGSTFSYEYKFQNWTNNGTNGDAFYAISSFVIAKSNTPISAPVVTNLDPHHHHHH
notes: also called D60A control clone
B3: PNGase F clone R911 C60A (D57L, D60A, I156L, G192I, E206S, R248W) (designed binder)
chain: GIPAPADNTVNIKTFDKVKNAFGDGLSQSAEGTFTFPADVTAVKTIKMFIKNECPNKTCLEWARYANVYVKNKTTGEWYEIGRFITPYWVGTEKLPRGLEIDVTDFKSLLSGNTELKIYTETWLAKGREYSVDFDIVYGTPDYKYSAVVPVVQYNKSSLDGVPYGKAHTLALKKNIQLPTNTEKAYLRTTISGWIHAKPYDAGSRGCASWCFRTHTIAINNSNTFQHQLGALGCSANPINNQSPGNWTPDWAGWCPGMAVPTRIDVLNNSLIGSTFSYEYKFQNWTNNGTNGDAFYAISSFVIAKSNTPISAPVVTNLDPHHHHHH
B4: PNGase F clone R911 (D57L, D60C, I156L, G192I, E206S, R248W) (designed binder)
chain: GIPAPADNTVNIKTFDKVKNAFGDGLSQSAEGTFTFPADVTAVKTIKMFIKNECPNKTCLEWCRYANVYVKNKTTGEWYEIGRFITPYWVGTEKLPRGLEIDVTDFKSLLSGNTELKIYTETWLAKGREYSVDFDIVYGTPDYKYSAVVPVVQYNKSSLDGVPYGKAHTLALKKNIQLPTNTEKAYLRTTISGWIHAKPYDAGSRGCASWCFRTHTIAINNSNTFQHQLGALGCSANPINNQSPGNWTPDWAGWCPGMAVPTRIDVLNNSLIGSTFSYEYKFQNWTNNGTNGDAFYAISSFVIAKSNTPISAPVVTNLDPHHHHHH

Experiments:
[1] = target: T1, denatured bovine pancreatic …; experiment: experimental binding free energy from SPR with dRNase B, relative to D60A
[2] = target: T1, denatured bovine pancreatic …; experiment: SPR (Biacore 3000), dRNase B immobilised on CM5, steady state
Procedure: A high-density surface was prepared with sufficient ligand coupling to yield a theoretical $RMAX$ of ~3000 RU. To assess the impact of the D60C mutation in R911 relative to wtPNGase F, the R911 C60A mutant was also evaluated. Steady-state binding kinetics using a bimolecular interaction model was determined using a Biacore 3000 instrument.
(§1) Using a similar strategy, denatured RNase B was immobilized on a CM-5 sensor chip and serially-diluted concentrations of wtPNGase F, D60A, R911, and R911 C60A were passed over the sensor surface, while binding kinetics were measured.
Dissociation (K_D) and off-rate constants ($koff$) for the interaction between denatured glycoprotein RNase B (dRNase B) with PNGase F mutagenized clones as determined by surface plasmon resonance.

[3] = target: T1, denatured bovine pancreatic …; experiment: SPR (Biacore 3000), dRNase B immobilised on CM5
[4] = target: T1, denatured bovine pancreatic …; experiment: SPR (Biacore 3000), dRNase B immobilised on CM5; calculated from KD
Procedure: Steady-state binding kinetics using a bimolecular interaction model was determined using a Biacore 3000 instrument.
as §1
Dissociation (K_D) and off-rate constants ($koff$) for the interaction between denatured glycoprotein RNase B (dRNase B) with PNGase F mutagenized clones as determined by surface plasmon resonance. Kinetic data s as determined with dRNase B as immobilized ligand on CM5 sensor chip and PNGase F clone analytes.

[5] = target: T1, denatured bovine pancreatic …; experiment: experimental binding free energy from SPR with denatured RNase B
[6] = target: T3, Histone H2A type 2-C (human); experiment: R911 affinity column, MCF7 cell extract, chitobiose elution, LC-MS/MS
T3 construct: From MCF7 cell extract; also called H2A2C
Procedure: (§2) Cell extract (100 µg) was loaded onto a R911 affinity column and then competitively eluted with free chitobiose in the binding buffer, instead of the standard elution buffer (FIG. 37).
(§3) Human breast cancer MCF7 cells were cultured in DMEM media supplemented with 10% fetal bovine serum. Cells were passaged and harvested using trypsin-free cell release. Approximately, 2.3 ×10^7 cells were harvested and washed 3× with 10 mL of phosphate buffered saline at 4° C. by centrifugation at 1000×g for 5 minutes. The cell pellet was resuspended in 1.5 mL of filter sterilized cell lysis buffer (10 mM Tris-HCl, pH 7.5, 150 mM NaCl, 1% v/v Nonidet P-40) with EDTA-free protease inhibitor cocktail (Roche Diagnostics, Mannheim, Germany) and incubated on ice for 30 minutes.[17] The cells were ultra-sonicated (Misonix Ultrasonic Liquid Processor Model S-4000) at intervals of 15 seconds for a total of 2 minutes, with a 15 second pause between treatments (30% amplitude). […] The supernatant containing the MCF7 cell extract was stored at −80° C. in 50 µL aliquots. […] An aliquoted MCF7 cell extract stock was thawed on ice and diluted to 1 mg/mL using 10 mM HEPES, 10 mM NaCl, at pH 7.4.
(§4) LC-MS/MS Protein Identification of R911 Lectenz® Affinity Chromatography Eluted Samples MCF7 cell extract and proteins eluted from the R911 Lectenz® affinity column were reduced, alkylated and digested with sequence grade trypsin (Promega) using a standard in-solution digest protocol.[30] The samples were acidified with 1% trifluroacetic acid and desalting was performed using C18 spin columns (Silica C18, The Nest Group, Inc.).

[7] = target: T4, Histone H2A.x (human, UniProt P16104 2-143); experiment: as above
T4 construct: From MCF7 cell extract
Procedure: as §2, §3, §4

[8] = target: T5, Histone H2A type 1-B/E (human); experiment: as above
T5 construct: From MCF7 cell extract; also called H2A1B
Procedure: as §2, §3, §4

[9] = target: T6, Histone H2A.Z (human); experiment: as above
T6 construct: From MCF7 cell extract
T6 sequence (chain, as listed by the source limits assumed): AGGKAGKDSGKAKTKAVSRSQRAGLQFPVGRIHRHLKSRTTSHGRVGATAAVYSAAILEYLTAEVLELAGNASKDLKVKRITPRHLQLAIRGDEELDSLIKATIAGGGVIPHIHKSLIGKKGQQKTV
Procedure: as §2, §3, §4

[10] = target: T2, RNase B deglycosylated with PNGase F; experiment: R911 affinity chromatography

Row | Binder | ΔΔGBIND-EXP (relative to D60A) [1] [kcal/mol] | Kd [2] [µM] | koff [3] [s⁻¹] | ΔGBIND-EXP [4] [kcal/mol] | Relative Affinity Enhancement (against D60A) [3] [fold] | Relative Off-Rate Enhancement (against D60A) [3] [fold] | ΔΔGBIND-EXP (relative to R911 C60A) [5] [kcal/mol] | binding result [6] | binding result [7] | binding result [8] | binding result [9] | binding result [10]
1 | B1 | 0.5 | 6.4 | 0.01 | -7.1 | – | – | – | – | – | – | – | –
2 | B2 | – | 2.7 | 0.43 | -7.61 | 1 | 1 | – | – | – | – | – | –
3 | B3 | -0.7 | 2 | 0.012 | -7.77 | 1.3 | 35 | – | – | – | – | – | –
4 | B4 | -1.9 | 0.26 | 0.0051 | -8.99 | 10 | 84 | -1.2 | binds | binds | binds | binds | no binding

Source: patent US11001824 (UNIVERSITY OF GEORGIA RESEARCH FOUNDATION, dated 2021)
